In PMC9482650, “Quantitative fragmentomics allow affinity mapping of interactomes” (Nature Communications, 2022):

T1: SNTG1, Q9NSN8
T1 sequence (Q9NSN8 52-150, limits assumed, looked up): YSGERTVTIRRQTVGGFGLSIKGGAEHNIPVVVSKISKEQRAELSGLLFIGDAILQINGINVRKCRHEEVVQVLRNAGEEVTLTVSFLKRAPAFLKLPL

T2: PTPN13_1, Q12923
T2 sequence (Q12923 1088-1188, limits assumed, looked up): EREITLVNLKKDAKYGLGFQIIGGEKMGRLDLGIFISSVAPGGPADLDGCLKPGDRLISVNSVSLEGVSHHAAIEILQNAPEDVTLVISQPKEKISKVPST

T3: MPDZ_5, O75970
T3 sequence (O75970 695-796, limits assumed, looked up): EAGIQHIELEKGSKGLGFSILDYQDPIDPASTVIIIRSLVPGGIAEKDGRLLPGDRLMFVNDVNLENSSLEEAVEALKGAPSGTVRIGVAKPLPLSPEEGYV

T4: DFNB31_1, Q9P202
T4 sequence (Q9P202 135-233, limits assumed, looked up): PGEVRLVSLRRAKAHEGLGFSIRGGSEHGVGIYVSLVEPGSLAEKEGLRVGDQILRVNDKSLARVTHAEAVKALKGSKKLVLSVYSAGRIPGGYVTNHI

T5: NHERF3_3, Q5T2W1
T5 sequence (Q5T2W1 238-333, limits assumed, looked up): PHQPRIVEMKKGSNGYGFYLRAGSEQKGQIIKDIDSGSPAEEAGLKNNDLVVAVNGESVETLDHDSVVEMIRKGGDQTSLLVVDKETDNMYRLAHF

T6: RADIL, Q96JH8
T6 sequence (Q96JH8 971-1071, limits assumed, looked up): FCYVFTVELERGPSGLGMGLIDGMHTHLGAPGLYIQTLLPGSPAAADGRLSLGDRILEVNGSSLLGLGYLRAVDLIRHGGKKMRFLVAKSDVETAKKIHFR

T7: LIN7A, O14910
T7 sequence (O14910 103-200, limits assumed, looked up): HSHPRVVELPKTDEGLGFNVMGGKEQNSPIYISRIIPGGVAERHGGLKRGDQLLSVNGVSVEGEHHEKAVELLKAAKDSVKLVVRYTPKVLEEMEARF

T8: RHPN1, Q8TCX5
T8 sequence (Q8TCX5 508-602, limits assumed, looked up): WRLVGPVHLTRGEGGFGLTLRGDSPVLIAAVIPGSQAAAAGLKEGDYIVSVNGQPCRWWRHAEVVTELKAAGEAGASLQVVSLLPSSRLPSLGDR

T9: DLG3_1, Q92796
T9 sequence (Q92796 125-227, limits assumed, looked up): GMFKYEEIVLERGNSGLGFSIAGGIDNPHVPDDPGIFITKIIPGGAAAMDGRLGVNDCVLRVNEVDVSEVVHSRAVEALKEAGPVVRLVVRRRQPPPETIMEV

T10: DLG3_2, Q92796
T10 sequence (Q92796 221-321, limits assumed, looked up): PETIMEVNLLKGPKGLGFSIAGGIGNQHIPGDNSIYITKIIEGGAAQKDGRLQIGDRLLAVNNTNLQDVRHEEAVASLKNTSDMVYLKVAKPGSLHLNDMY

T11: SNTG2, Q9NY99
T11 sequence (Q9NY99 68-166, limits assumed, looked up): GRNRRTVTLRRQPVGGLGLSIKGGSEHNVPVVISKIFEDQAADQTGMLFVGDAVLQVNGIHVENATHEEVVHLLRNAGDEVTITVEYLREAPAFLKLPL


These binders were tested against T1, SNTG1, Q9NSN8 (assay: holdup assay). Conditions: plain residues with an end cap or a label only (N-terminal biotin on a linker: ado-ado).
Parameters: key: below the threshold = too weak to quantify, mostly under pKd 3.1 to 4

Binder | pKd
NLQEHSTTSV [RSBN1, Q5VWQ0] | 3.65
HLRQQGSVEV [EPHB6, O15197] | below the threshold

What follows are binders tested against NHERF4_1, Q86UT5-2 (assay: holdup assay). Conditions: plain residues with an end cap or a label only (N-terminal biotin on a linker: ado-ado).
NHERF4_1, Q86UT5-2, sequence (Q86UT5 other isoform, or with tags, fused parts or gaps): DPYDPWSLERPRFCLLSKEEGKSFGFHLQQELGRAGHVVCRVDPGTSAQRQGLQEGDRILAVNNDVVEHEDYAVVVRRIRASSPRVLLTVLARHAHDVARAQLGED
Parameters: key: below the threshold = too weak to quantify, mostly under pKd 3.1 to 4

Binder | pKd
NLQEHSTTSV [RSBN1, Q5VWQ0] | below the threshold
HLRQQGSVEV [EPHB6, O15197] | 3.71

These binders were tested against MAGI2_4, Q86UL8 (assay: holdup assay). Conditions: plain residues with an end cap or a label only (N-terminal biotin on a linker: ado-ado).
MAGI2_4, Q86UL8, sequence (Q86UL8 772-865): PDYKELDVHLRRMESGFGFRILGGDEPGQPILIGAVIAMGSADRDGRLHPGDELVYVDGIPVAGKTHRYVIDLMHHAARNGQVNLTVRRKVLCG
Parameters: key: below the threshold = too weak to quantify, mostly under pKd 3.1 to 4

Binder | pKd
NLQEHSTTSV [RSBN1, Q5VWQ0] | 3.5
HLRQQGSVEV [EPHB6, O15197] | below the threshold

Each binder was assayed against T2, PTPN13_1, Q12923 (assay: holdup assay). Conditions: plain residues with an end cap or a label only (N-terminal biotin on a linker: ado-ado).
Parameters: key: below the threshold = too weak to quantify, mostly under pKd 3.1 to 4

Binder | pKd
NLQEHSTTSV [RSBN1, Q5VWQ0] | below the threshold
HLRQQGSVEV [EPHB6, O15197] | below the threshold

The binders below were run against AHNAK1, Q09666 (assay: holdup assay). Conditions: plain residues with an end cap or a label only (N-terminal biotin on a linker: ado-ado).
AHNAK1, Q09666, sequence (Q09666 4-100): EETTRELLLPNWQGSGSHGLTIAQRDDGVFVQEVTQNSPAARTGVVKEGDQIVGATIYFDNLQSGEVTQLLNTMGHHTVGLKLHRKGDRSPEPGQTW
Parameters: key: below the threshold = too weak to quantify, mostly under pKd 3.1 to 4

Binder | pKd
NLQEHSTTSV [RSBN1, Q5VWQ0] | below the threshold
HLRQQGSVEV [EPHB6, O15197] | below the threshold

Each binder was assayed against T3, MPDZ_5, O75970 (assay: holdup assay). Conditions: plain residues with an end cap or a label only (N-terminal biotin on a linker: ado-ado).
Parameters: key: below the threshold = too weak to quantify, mostly under pKd 3.1 to 4

Binder | pKd
NLQEHSTTSV [RSBN1, Q5VWQ0] | below the threshold
HLRQQGSVEV [EPHB6, O15197] | below the threshold

The binders below were run against PTPN3, P26045 (assay: holdup assay). Conditions: plain residues with an end cap or a label only (N-terminal biotin on a linker: ado-ado).
PTPN3, P26045, sequence (P26045 505-587): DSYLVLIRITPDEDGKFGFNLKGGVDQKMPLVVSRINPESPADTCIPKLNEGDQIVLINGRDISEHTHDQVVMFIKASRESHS
Parameters: key: below the threshold = too weak to quantify, mostly under pKd 3.1 to 4

Binder | pKd
NLQEHSTTSV [RSBN1, Q5VWQ0] | 4.49
HLRQQGSVEV [EPHB6, O15197] | below the threshold

These binders were tested against Inadl_3, Q8NI35 (assay: holdup assay). Conditions: plain residues with an end cap or a label only (N-terminal biotin on a linker: ado-ado).
Inadl_3, Q8NI35, sequence (Q8NI35 359-469): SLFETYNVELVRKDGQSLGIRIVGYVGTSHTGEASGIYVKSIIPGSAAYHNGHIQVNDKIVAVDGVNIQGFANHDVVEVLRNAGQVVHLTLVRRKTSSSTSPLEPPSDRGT
Parameters: key: below the threshold = too weak to quantify, mostly under pKd 3.1 to 4

Binder | pKd
NLQEHSTTSV [RSBN1, Q5VWQ0] | below the threshold
HLRQQGSVEV [EPHB6, O15197] | below the threshold

The binders below were run against LIMK2, P53671 (assay: holdup assay). Conditions: plain residues with an end cap or a label only (N-terminal biotin on a linker: ado-ado).
LIMK2, P53671, sequence (P53671 143-248): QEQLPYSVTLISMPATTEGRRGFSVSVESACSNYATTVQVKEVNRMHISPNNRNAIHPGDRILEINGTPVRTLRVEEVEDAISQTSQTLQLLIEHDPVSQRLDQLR
Parameters: key: below the threshold = too weak to quantify, mostly under pKd 3.1 to 4

Binder | pKd
NLQEHSTTSV [RSBN1, Q5VWQ0] | below the threshold
HLRQQGSVEV [EPHB6, O15197] | below the threshold

What follows are binders tested against T4, DFNB31_1, Q9P202 (assay: holdup assay). Conditions: plain residues with an end cap or a label only (N-terminal biotin on a linker: ado-ado).
Parameters: key: below the threshold = too weak to quantify, mostly under pKd 3.1 to 4

Binder | pKd
NLQEHSTTSV [RSBN1, Q5VWQ0] | 3.72
HLRQQGSVEV [EPHB6, O15197] | below the threshold

Each binder was assayed against T5, NHERF3_3, Q5T2W1 (assay: holdup assay). Conditions: plain residues with an end cap or a label only (N-terminal biotin on a linker: ado-ado).
Parameters: key: below the threshold = too weak to quantify, mostly under pKd 3.1 to 4

Binder | pKd
NLQEHSTTSV [RSBN1, Q5VWQ0] | below the threshold
HLRQQGSVEV [EPHB6, O15197] | below the threshold

These binders were tested against T6, RADIL, Q96JH8 (assay: holdup assay). Conditions: plain residues with an end cap or a label only (N-terminal biotin on a linker: ado-ado).
Parameters: key: below the threshold = too weak to quantify, mostly under pKd 3.1 to 4

Binder | pKd
NLQEHSTTSV [RSBN1, Q5VWQ0] | below the threshold
HLRQQGSVEV [EPHB6, O15197] | 3.74

These binders were tested against Inadl_10, Q8NI35 (assay: holdup assay). Conditions: plain residues with an end cap or a label only (N-terminal biotin on a linker: ado-ado).
Inadl_10, Q8NI35, sequence (Q8NI35 1673-1763): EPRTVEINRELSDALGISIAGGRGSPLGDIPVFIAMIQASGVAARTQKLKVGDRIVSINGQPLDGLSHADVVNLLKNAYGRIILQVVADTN
Parameters: key: below the threshold = too weak to quantify, mostly under pKd 3.1 to 4

Binder | pKd
NLQEHSTTSV [RSBN1, Q5VWQ0] | below the threshold
HLRQQGSVEV [EPHB6, O15197] | below the threshold

Each binder was assayed against TJP1_3, Q07157 (assay: holdup assay). Conditions: plain residues with an end cap or a label only (N-terminal biotin on a linker: ado-ado).
TJP1_3, Q07157, sequence (Q07157 416-512): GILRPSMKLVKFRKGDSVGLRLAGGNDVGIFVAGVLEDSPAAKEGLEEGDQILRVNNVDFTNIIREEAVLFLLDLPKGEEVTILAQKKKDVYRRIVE
Parameters: key: below the threshold = too weak to quantify, mostly under pKd 3.1 to 4

Binder | pKd
NLQEHSTTSV [RSBN1, Q5VWQ0] | below the threshold
HLRQQGSVEV [EPHB6, O15197] | below the threshold

Each binder was assayed against MAGI1_2, Q96QZ7 (assay: holdup assay). Conditions: plain residues with an end cap or a label only (N-terminal biotin on a linker: ado-ado).
MAGI1_2, Q96QZ7, sequence (Q96QZ7 456-580): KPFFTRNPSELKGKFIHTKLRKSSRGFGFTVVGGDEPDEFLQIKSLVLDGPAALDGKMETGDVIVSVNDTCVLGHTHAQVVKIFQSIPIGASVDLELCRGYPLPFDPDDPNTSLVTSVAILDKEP
Parameters: key: below the threshold = too weak to quantify, mostly under pKd 3.1 to 4

Binder | pKd
NLQEHSTTSV [RSBN1, Q5VWQ0] | 3.53
HLRQQGSVEV [EPHB6, O15197] | below the threshold

What follows are binders tested against T7, LIN7A, O14910 (assay: holdup assay). Conditions: plain residues with an end cap or a label only (N-terminal biotin on a linker: ado-ado).
Parameters: key: below the threshold = too weak to quantify, mostly under pKd 3.1 to 4

Binder | pKd
NLQEHSTTSV [RSBN1, Q5VWQ0] | below the threshold
HLRQQGSVEV [EPHB6, O15197] | below the threshold

The binders below were run against GORASP2, Q9H8Y8 (assay: holdup assay). Conditions: plain residues with an end cap or a label only (N-terminal biotin on a linker: ado-ado).
Parameters: key: below the threshold = too weak to quantify, mostly under pKd 3.1 to 4

Binder | pKd
NLQEHSTTSV [RSBN1, Q5VWQ0] | below the threshold
HLRQQGSVEV [EPHB6, O15197] | below the threshold

These binders were tested against T8, RHPN1, Q8TCX5 (assay: holdup assay). Conditions: plain residues with an end cap or a label only (N-terminal biotin on a linker: ado-ado).
Parameters: key: below the threshold = too weak to quantify, mostly under pKd 3.1 to 4

Binder | pKd
NLQEHSTTSV [RSBN1, Q5VWQ0] | 4.04
HLRQQGSVEV [EPHB6, O15197] | below the threshold

Each binder was assayed against LNX1_2, Q8TBB1 (assay: holdup assay). Conditions: plain residues with an end cap or a label only (N-terminal biotin on a linker: ado-ado).
LNX1_2, Q8TBB1, sequence (Q8TBB1 371-470): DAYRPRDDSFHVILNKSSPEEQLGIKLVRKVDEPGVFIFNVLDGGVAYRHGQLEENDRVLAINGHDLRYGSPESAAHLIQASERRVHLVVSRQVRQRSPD
Parameters: key: below the threshold = too weak to quantify, mostly under pKd 3.1 to 4

Binder | pKd
NLQEHSTTSV [RSBN1, Q5VWQ0] | below the threshold
HLRQQGSVEV [EPHB6, O15197] | 4.1

The binders below were run against FRMPD2_2, Q68DX3 (assay: holdup assay). Conditions: plain residues with an end cap or a label only (N-terminal biotin on a linker: ado-ado).
FRMPD2_2, Q68DX3, sequence (Q68DX3 944-1038): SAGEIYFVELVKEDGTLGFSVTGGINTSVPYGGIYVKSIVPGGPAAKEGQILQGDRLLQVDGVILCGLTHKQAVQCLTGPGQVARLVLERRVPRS
Parameters: key: below the threshold = too weak to quantify, mostly under pKd 3.1 to 4

Binder | pKd
NLQEHSTTSV [RSBN1, Q5VWQ0] | 3.97
HLRQQGSVEV [EPHB6, O15197] | below the threshold

What follows are binders tested against FRMPD2_3, Q68DX3 (assay: holdup assay). Conditions: plain residues with an end cap or a label only (N-terminal biotin on a linker: ado-ado).
FRMPD2_3, Q68DX3, sequence (Q68DX3 1073-1166): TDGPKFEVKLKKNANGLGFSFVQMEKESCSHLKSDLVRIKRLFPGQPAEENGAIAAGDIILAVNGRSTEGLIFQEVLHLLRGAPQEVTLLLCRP
Parameters: key: below the threshold = too weak to quantify, mostly under pKd 3.1 to 4

Binder | pKd
NLQEHSTTSV [RSBN1, Q5VWQ0] | below the threshold
HLRQQGSVEV [EPHB6, O15197] | below the threshold

These binders were tested against T9, DLG3_1, Q92796 (assay: holdup assay). Conditions: plain residues with an end cap or a label only (N-terminal biotin on a linker: ado-ado).
Parameters: key: below the threshold = too weak to quantify, mostly under pKd 3.1 to 4

Binder | pKd
NLQEHSTTSV [RSBN1, Q5VWQ0] | below the threshold
HLRQQGSVEV [EPHB6, O15197] | below the threshold

The binders below were run against Inadl_9, Q8NI35 (assay: holdup assay). Conditions: plain residues with an end cap or a label only (N-terminal biotin on a linker: ado-ado).
Inadl_9, Q8NI35, sequence (Q8NI35 1530-1615): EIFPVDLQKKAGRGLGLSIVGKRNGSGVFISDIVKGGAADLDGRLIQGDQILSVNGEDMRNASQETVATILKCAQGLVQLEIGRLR
Parameters: key: below the threshold = too weak to quantify, mostly under pKd 3.1 to 4

Binder | pKd
NLQEHSTTSV [RSBN1, Q5VWQ0] | below the threshold
HLRQQGSVEV [EPHB6, O15197] | 4.03

Each binder was assayed against T10, DLG3_2, Q92796 (assay: holdup assay). Conditions: plain residues with an end cap or a label only (N-terminal biotin on a linker: ado-ado).
Parameters: key: below the threshold = too weak to quantify, mostly under pKd 3.1 to 4

Binder | pKd
NLQEHSTTSV [RSBN1, Q5VWQ0] | 3.47
HLRQQGSVEV [EPHB6, O15197] | below the threshold

These binders were tested against T11, SNTG2, Q9NY99 (assay: holdup assay). Conditions: plain residues with an end cap or a label only (N-terminal biotin on a linker: ado-ado).
Parameters: key: below the threshold = too weak to quantify, mostly under pKd 3.1 to 4

Binder | pKd
NLQEHSTTSV [RSBN1, Q5VWQ0] | below the threshold
HLRQQGSVEV [EPHB6, O15197] | below the threshold

Each binder was assayed against SCRIB_2, Q14160 (assay: holdup assay). Conditions: plain residues with an end cap or a label only (N-terminal biotin on a linker: ado-ado).
SCRIB_2, Q14160, sequence (Q14160 857-960): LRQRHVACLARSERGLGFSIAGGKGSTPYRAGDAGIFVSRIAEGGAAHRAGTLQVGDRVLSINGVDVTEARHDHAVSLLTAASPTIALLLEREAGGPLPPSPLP
Parameters: key: below the threshold = too weak to quantify, mostly under pKd 3.1 to 4

Binder | pKd
NLQEHSTTSV [RSBN1, Q5VWQ0] | below the threshold
HLRQQGSVEV [EPHB6, O15197] | below the threshold

Each binder was assayed against DLG1_3, Q12959 (assay: holdup assay). Conditions: plain residues with an end cap or a label only (N-terminal biotin on a linker: ado-ado).
DLG1_3, Q12959, sequence (Q12959 457-571): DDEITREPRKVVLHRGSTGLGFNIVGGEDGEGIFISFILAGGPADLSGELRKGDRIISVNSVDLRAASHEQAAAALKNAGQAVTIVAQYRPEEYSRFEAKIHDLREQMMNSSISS
Parameters: key: below the threshold = too weak to quantify, mostly under pKd 3.1 to 4

Binder | pKd
NLQEHSTTSV [RSBN1, Q5VWQ0] | 3.76
HLRQQGSVEV [EPHB6, O15197] | below the threshold
